# Data: paper PMC7480041 (bioRxiv, 2020)
# B1: mBG21 (antibody, V domains shown)
# VH: QIQLVQSGPELKKPGETVKISCKASGYTFTDYSMHWVKQAPGKGSKWMGWINTETGEPTYADDFKGRFAFSLETSASTAYLQINNLKNEDTATYFCALRRWGQGTLVTVSS
# VL: IVMTQTPKFLLVSAGDRVTITCKASQSVSNDVAWFQQKPGQSPKKLLIYFASNRYTGVPDRFTGSGYGTDFTFTITTVQAEDLAVYFCQQDYSSPWTFGGGTKLEIK
# Molecular target: truncated recombinant SARS-CoV-2 nucleocapsid (N) protein, AA133–419 (SARS-CoV-2 (isolate USA-WA1/2020), UniProt P0DTC9)
# Experiment: ELISA
binder,measurement,value
B1,corrected average ELISA signal,1.43
